Assays:
ATG16L2 = target: T1, ATG16L2 (UniProt Q8NAA4)
T1 sequence: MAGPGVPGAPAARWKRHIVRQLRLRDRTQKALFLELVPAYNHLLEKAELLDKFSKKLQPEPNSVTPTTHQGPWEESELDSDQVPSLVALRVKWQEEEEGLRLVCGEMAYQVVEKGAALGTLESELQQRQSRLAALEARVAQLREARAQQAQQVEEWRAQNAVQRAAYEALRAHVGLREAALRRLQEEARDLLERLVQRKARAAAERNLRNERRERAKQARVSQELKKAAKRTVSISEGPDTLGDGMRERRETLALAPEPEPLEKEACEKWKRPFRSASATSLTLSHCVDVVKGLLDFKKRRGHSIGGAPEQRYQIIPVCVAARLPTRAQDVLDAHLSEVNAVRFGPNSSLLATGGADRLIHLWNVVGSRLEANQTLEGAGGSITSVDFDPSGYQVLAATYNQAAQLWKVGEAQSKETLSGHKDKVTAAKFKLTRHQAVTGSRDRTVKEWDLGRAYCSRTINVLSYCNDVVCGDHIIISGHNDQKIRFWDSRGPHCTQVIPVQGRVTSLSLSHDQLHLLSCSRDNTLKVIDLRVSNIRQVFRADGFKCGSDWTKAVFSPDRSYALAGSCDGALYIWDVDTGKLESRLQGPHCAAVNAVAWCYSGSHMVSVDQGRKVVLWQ

kbtb6_human KBTBD6 = target: T2, kbtb6_human KBTBD6 (UniProt Q86V97)
T2 sequence: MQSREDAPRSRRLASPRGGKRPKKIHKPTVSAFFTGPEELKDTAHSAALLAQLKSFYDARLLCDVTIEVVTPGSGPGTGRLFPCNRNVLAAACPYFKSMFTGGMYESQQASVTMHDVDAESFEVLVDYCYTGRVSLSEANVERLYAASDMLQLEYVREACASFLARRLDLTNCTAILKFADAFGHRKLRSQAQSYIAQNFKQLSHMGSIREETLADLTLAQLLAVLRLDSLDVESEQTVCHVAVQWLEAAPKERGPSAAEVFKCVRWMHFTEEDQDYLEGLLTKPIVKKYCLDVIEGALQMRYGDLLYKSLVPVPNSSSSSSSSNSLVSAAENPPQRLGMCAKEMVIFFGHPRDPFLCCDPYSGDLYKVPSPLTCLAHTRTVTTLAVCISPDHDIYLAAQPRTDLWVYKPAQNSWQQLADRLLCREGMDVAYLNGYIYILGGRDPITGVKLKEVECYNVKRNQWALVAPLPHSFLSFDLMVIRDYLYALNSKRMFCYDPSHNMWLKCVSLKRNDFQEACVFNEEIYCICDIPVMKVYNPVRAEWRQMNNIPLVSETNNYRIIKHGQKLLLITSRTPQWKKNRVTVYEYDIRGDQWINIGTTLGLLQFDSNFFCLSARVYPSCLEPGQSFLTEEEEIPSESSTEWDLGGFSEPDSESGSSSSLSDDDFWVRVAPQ

ulk1_human ULK1 = target: T3, ulk1_human ULK1 (UniProt O75385)
T3 sequence: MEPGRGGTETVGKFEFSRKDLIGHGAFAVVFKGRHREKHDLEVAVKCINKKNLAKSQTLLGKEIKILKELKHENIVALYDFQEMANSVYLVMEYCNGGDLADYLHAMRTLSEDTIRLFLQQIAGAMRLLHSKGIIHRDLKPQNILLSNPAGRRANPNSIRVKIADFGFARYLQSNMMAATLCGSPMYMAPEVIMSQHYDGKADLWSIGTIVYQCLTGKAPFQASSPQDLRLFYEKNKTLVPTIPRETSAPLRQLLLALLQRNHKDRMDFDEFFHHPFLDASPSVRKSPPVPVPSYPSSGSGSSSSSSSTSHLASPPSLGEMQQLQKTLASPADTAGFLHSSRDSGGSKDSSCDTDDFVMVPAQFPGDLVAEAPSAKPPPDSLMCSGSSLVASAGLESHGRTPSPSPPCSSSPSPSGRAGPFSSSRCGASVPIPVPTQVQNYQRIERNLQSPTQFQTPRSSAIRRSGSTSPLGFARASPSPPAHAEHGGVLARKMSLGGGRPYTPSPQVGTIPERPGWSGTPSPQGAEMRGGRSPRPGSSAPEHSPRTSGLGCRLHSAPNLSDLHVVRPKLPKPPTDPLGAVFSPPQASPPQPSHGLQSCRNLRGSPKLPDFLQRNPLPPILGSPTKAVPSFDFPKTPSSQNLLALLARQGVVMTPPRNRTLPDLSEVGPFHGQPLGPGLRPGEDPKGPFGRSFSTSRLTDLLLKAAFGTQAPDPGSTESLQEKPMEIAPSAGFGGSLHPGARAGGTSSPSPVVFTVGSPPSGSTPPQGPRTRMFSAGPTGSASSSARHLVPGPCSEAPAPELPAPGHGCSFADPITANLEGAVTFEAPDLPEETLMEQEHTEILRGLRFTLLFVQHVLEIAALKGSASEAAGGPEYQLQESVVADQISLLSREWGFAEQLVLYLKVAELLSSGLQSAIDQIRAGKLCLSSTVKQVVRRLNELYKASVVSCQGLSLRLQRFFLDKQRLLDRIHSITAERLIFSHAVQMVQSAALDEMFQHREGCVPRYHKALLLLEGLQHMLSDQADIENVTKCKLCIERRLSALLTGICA

Substance	effect of a mutation on the interaction (ATG16L2)	effect of a mutation on the interaction (kbtb6_human KBTBD6)	effect of a mutation on the interaction (ulk1_human ULK1)
Microtubule-associated protein 1 light chain 3 beta (Homo sapiens) (from UniProt Q9GZQ8) F52A;L53A	increasing interaction	decreasing interaction	
Microtubule-associated protein 1 light chain 3 beta (Homo sapiens) (from UniProt Q9GZQ8) R69A		disrupting interaction	decreasing interaction
